Measured values from paper PMC5261807 (2017).
Values belong to the binder of their own block, whether it stands above or below them. Non-standard residues stand in square brackets, D forms with d. No end group written: not given here. Arg(Me2a) = CN(C)C(=N)NCCC[C@H](N)C(=O)O; Lys(Me3) = C[N+](C)(C)CCCC[C@H](N)C(=O)O; Arg(Me2s) = CN=C(NC)NCCC[C@H](N)C(=O)O; pT = C[C@@H](OP(=O)(O)O)[C@H](N)C(=O)O; Lys(Me2) = CN(C)CCCC[C@H](N)C(=O)O; Me2s = symmetric dimethyl (on Arg); pS = N[C@@H](COP(=O)(O)O)C(=O)O; Lys(Me) = CNCCCC[C@H](N)C(=O)O; Me3 = trimethyl (on Lys)

How the values were obtained:
[1] = molecular target: T1, Bdf1 bromodomain 2 (GST-tagged, WT) (Saccharomyces cerevisiae (strain ATCC …, UniProt P35817)); test: histone peptide array probed with recombinant GST-bromodomain, signal normalised to myc peptide control
T1 chain: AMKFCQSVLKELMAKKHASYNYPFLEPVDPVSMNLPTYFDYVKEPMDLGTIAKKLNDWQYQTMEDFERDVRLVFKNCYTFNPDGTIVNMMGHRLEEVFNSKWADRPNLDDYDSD

[2] = molecular target: T2, Bdf1 bromodomain 1 (GST-tagged, WT) (Saccharomyces cerevisiae (strain ATCC …, UniProt P35817)); test: as above
T2 chain: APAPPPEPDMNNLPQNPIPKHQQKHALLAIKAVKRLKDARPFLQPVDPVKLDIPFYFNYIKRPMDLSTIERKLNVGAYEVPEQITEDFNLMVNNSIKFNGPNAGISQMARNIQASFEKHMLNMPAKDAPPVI

binding score [1]: 0.258 | binding score [2]: 0.18
B10: H4 1-19 (peptide)
chain: SGRGKGGKGLGKGGAKRHR
modifications: S G R G K G G Kac G L G Kac G G A K R H R

binding score [1]: 0.069 | binding score [2]: 0.00108
B12: H4 1-19 (peptide)
chain: SGRGKGGKGLGKGGAKRHR
modifications: pS G R G Kac G G K G L G K G G A K R H R

binding score [1]: 0.386 | binding score [2]: 0.29
B13: H4 1-19 (peptide)
chain: SGRGKGGKGLGKGGAKRHR
modifications: S G Rme2a G Kac G G Kac G L G Kac G G A K R H R

binding score [1]: 0.00305 | binding score [2]: 0
B14: H4 1-19 (peptide)
chain: SGRGKGGKGLGKGGAKRHR
modifications: pS G R G K G G K G L G K G G A K R H R

binding score [1]: 0.299 | binding score [2]: 0.126
B15: H4 1-19 (peptide)
chain: SGRGKGGKGLGKGGAKRHR
modifications: pS G Rme2s G Kac G G Kac G L G K G G A K R H R

binding score [1]: 0 | binding score [2]: 0
B18: H3 16-35 (peptide)
chain: PRKQLATKAARK[pS]APATGG

binding score [1]: 1 | binding score [2]: 1
B21: c-myc tag (peptide)
chain: EQKLISEEDLA
modifications: histone peptides carry modifications given inline in the sequence and in columns 4-7 (Kac, Kme1/2/3, Rme2a/s, Cit, pS/pT); N-terminus free or acetylated

binding score [1]: 0.161 | binding score [2]: 0.0534
B24: H4 1-19 (peptide)
chain: SGRGKGGKGLGKGGAKRHR
modifications: S G R G K G G Kac G L G K G G A Kac R H R

binding score [1]: 0.00364 | binding score [2]: 0
B31: H3 26-45 (peptide)
chain: RKSAPATGGVKKPHRYRPG
modifications: R K S A P A T G G V Kme1 K P H R Y R P G

binding score [1]: 0 | binding score [2]: 0
B33: H3 1-19 (peptide)
chain: A[Arg(Me2a)]T[Lys(Me3)]QTA[Arg(Me2s)][Lys(Me)]STGGKAPRKQ

binding score [1]: 0.0733 | binding score [2]: 0.00108
B35: H3 1-19 (peptide)
chain: ARTKQTARKSTGGK(Ac)APRKQ

binding score [1]: 0.00148 | binding score [2]: 0.00305
B36: H3 1-19 (peptide)
chain: ARTKQTARKSTGGKAPRKQ
modifications: A R T K Q T A Rme2s Kme3 pS T G G K A P R K Q

binding score [1]: 0.00482 | binding score [2]: 0.0172
B38: H3 1-19 (peptide)
chain: A[Arg(Me2s)]TK(Ac)QTARKSTGGKAPRKQ

The next lines start with the binder.

B1: H2B 1-19 (peptide)
chain: PDPAK(Ac)SAPAPKKG[pS]KKAVT
binding score [1]: 0 | binding score [2]: 0.00412

B2: H3 1-19 (peptide)
chain: ARTKQTA[Arg(Me2s)][Lys(Me)][pS]TGGKAPRKQ
binding score [1]: 0 | binding score [2]: 0.00394

B3: H3 1-19 (peptide)
chain: ARTKQTARKSTGGKAPRKQ
modifications: A R T Kme1 Q T A Rme2a Kac S T G G K A P R K Q
binding score [1]: 0.00915 | binding score [2]: 0.0217

B4: H3 1-19 (peptide)
chain: ARTKQTARKSTGGKAPRKQ
modifications: A R T K Q T A R Kme3 S pT G G K A P R K Q
binding score [1]: 0 | binding score [2]: 0

B5: H3 1-19 (peptide)
chain: ARTKQTARKSTGGKAPRKQ
modifications: A Rme2s T Kme2 Q T A Rme2a Kme1 S T G G K A P R K Q
binding score [1]: 0 | binding score [2]: 0

B6: H3 1-19 (peptide)
chain: A[Arg(Me2s)]TK(Ac)QTA[Arg(Me2a)][Lys(Me)]STGGKAPRKQ
binding score [1]: 0.00384 | binding score [2]: 0.00161

B7: H3 1-19 (peptide)
chain: A[Arg(Me2s)]TK(Me)QTARKSTGGKAPRKQ
binding score [1]: 0 | binding score [2]: 0

B8: H3 1-19 (peptide)
chain: A[Arg(Me2s)]T[Lys(Me2)]QTA[Arg(Me2s)][Lys(Me3)]STGGKAPRKQ
binding score [1]: 0 | binding score [2]: 0

B9: H2a 1-19 (peptide)
chain: SGRGKQGGK(Ac)ARAK(Ac)AKSRSS
binding score [1]: 0.117 | binding score [2]: 0.0104

B11: H3 1-19 (peptide)
chain: ARTKQTA[Arg(Me2a)]K(Ac)[pS][pT]GGKAPRKQ
binding score [1]: 0 | binding score [2]: 0.00663

B16: H3 1-19 (peptide)
chain: ARTKQTARKSTGGKAPRKQ
modifications: A Rme2a T Kme1 Q T A Rme2a Kac S T G G K A P R K Q
binding score [1]: 0.00325 | binding score [2]: 0.0124

B17: H3 1-19 (peptide)
chain: ARTKQTA[Arg(Me2s)]K(Me)S[pT]GGKAPRKQ
binding score [1]: 0.00836 | binding score [2]: 0

B19: H3 1-19 (peptide)
chain: A[Arg(Me2a)]TK(Ac)QTA[Arg(Me2s)][Lys(Me3)]STGGKAPRKQ
binding score [1]: 0.00758 | binding score [2]: 0.00681

B20: H3 1-19 (peptide)
chain: ARTK(Me3)QTAR(Me2s)K(Ac)STGGKAPRKQ
binding score [1]: 0.0363 | binding score [2]: 0.0484

B22: H3 1-19 (peptide)
chain: ARTKQTARKSTGGKAPRKQ
modifications: A Rme2a T Kme2 Q T A R Kme2 S T G G K A P R K Q
binding score [1]: 0 | binding score [2]: 0

B23: H3 1-19 (peptide)
chain: ARTKQTARKSTGGKAPRKQ
modifications: A R T Kme2 Q T A Rme2s Kac S T G G K A P R K Q
binding score [1]: 0.0564 | binding score [2]: 0.0301

B25: H3 1-19 (peptide)
chain: ARTKQTARKSTGGKAPRKQ
modifications: A Rme2s T Kme1 Q T A Rme2s Kme3 S T G G K A P R K Q
binding score [1]: 0 | binding score [2]: 0.00161

B26: H3 1-19 (peptide)
chain: ARTKQTARKSTGGKAPRKQ
modifications: A R T K Q T A R Kme2 pS T G G K A P R K Q
binding score [1]: 0 | binding score [2]: 0.00108

B27: H3 1-19 (peptide)
chain: ARTKQTARKSTGGKAPRKQ
modifications: A Rme2a T Kac Q T A Rme2s Kac S T G G K A P R K Q
binding score [1]: 0.0869 | binding score [2]: 0.0518

B28: H3 1-19 (peptide)
chain: A[Arg(Me2s)]T[Lys(Me2)]QTAR[Lys(Me3)]STGGKAPRKQ
binding score [1]: 0 | binding score [2]: 0

B29: H3 1-19 (peptide)
chain: ARTKQTARKSTGGKAPRKQ
modifications: A Rme2s T Kac Q T A Rme2s Kac S T G G K A P R K Q
binding score [1]: 0.131 | binding score [2]: 0.0405

B30: H3 1-19 (peptide)
chain: AR[pT]K(Ac)QTARKSTGGKAPRKQ
binding score [1]: 0.0271 | binding score [2]: 0.0321

B32: H3 1-19 (peptide)
chain: ARTKQTA[Arg(Me2s)][Lys(Me2)][pS]TGGKAPRKQ
binding score [1]: 0.00541 | binding score [2]: 0.000179

B34: H2B 1-19 (peptide)
chain: PDPAK(Ac)SAPAPKK(Ac)GSKKAVT
binding score [1]: 0.0186 | binding score [2]: 0

B37: H2a 1-19 (peptide)
chain: SGRGKQGGKARAKAKSRSS
modifications: histone peptides carry modifications given inline in the sequence and in columns 4-7 (Kac, Kme1/2/3, Rme2a/s, Cit, pS/pT); N-terminus free or acetylated
binding score [1]: 0.0141 | binding score [2]: 0

B39: H2a 1-19 (peptide)
chain: [pS]GRGK(Ac)QGGKARAK(Ac)AKSRSS
binding score [1]: 0.231 | binding score [2]: 0
